Experimental data taken from patent publication US20160333060A1 (UNITED STATES OF AMERICA AS REPRESENTED BY THE SECRETARY …, published 2016).

Molecular target: T1, recombinant HIV-1HXB2 gp41 (Vybion Inc.) (HIV-1 HXB2, UniProt P04578 541-682)
T1 construct: domain: gp41; Bought reagent; also called rgp41
Test: ELISA, plate-bound recombinant HIV-1HXB2 gp41, serial dilutions of rCNID-1-Trx, detection with rabbit anti-CNID-1

B1: recombinant CNID-1 in fusion with thioredoxin (thioredoxin-hexahistidine-CNID-1) (other)
chain: GRATLGQLKTSTIPPVTFDVPFDGANIPQDVRFTIATVNGGKGALYNAELGESAGHTIVLESDGDHPIPGTFDPKSGRGLDYLPRGLVLFSSHNYVGNMKMYTEPDSDITADFPPGTPFGVSSAITGEGSAFQLNTGIDHTGEFEIIPPNTKRNLAGVFDNEIRSVSPTGGK
modifications: Europium label in the reference-protein ELISA only; otherwise none stated
notes: The N-terminal residue of native CNID-1 is sarcosine; also called rCNID-1-Trx; CNID-1-Trx; not shown: N-terminal thioredoxin (Trx) encoded by the Novagen pET32b(+) Trx fusion vector
B1: no binding.
